Test results published in publication doi:10.1101/2020.01.30.926501 (bioRxiv, 2020).

Target: the molecule itself
Experiment: single-molecule GFP fluorescence intensity

| Protein | stoichiometry N |
| --- | --- |
| Kif14(768)-eGFP (domain or fragment, human, UniProt Q15058 1-768, looked up) MSLHSTHNRNNSGDILDIPSSQNSSSLNALTHSSRLKLHLKSDMSECENDDPLLRSAGKVRDINRTYVISASRKTADMPLTPNPVGRLALQRRTTRNKESSLLVSELEDTTEKTAETRLTLQRRAKTDSAEKWKTAEIDSVKMTLNVGGETENNGVSKESRTNVRIVNNAKNSFVASSVPLDEDPQVIEMMADKKYKETFSAPSRANENVALKYSSNRPPIASLSQTEVVRSGHLTTKPTQSKLDIKVLGTGNLYHRSIGKEIAKTSNKFGSLEKRTPTKCTTEHKLTTKCSLPQLKSPAPSILKNRMSNLQVKQRPKSSFLANKQERSAENTILPEEETVVQNTSAGKDPLKVENSQVTVAVRVRPFTKREKIEKASQVVFMSGKEITVEHPDTKQVYNFIYDVSFWSFDECHPHYASQTTVYEKLAAPLLERAFEGFNTCLFAYGQTGSGKSYTMMGFSEEPGIIPRFCEDLFSQVARKQTQEVSYHIEMSFFEVYNEKIHDLLVCKDENGQRKQPLRVREHPVYGPYVEALSMNIVSSYADIQSWLELGNKQRATAATGMNDKSSRSHSVFTLVMTQTKTEFVEGEEHDHRITSRINLIDLAGSERCSTAHTNGDRLKEGVSINKSLLTLGKVISALSEQANQRSVFIPYRESVLTWLLKESLGGNSKTAMIATISPAASNIEETLSTLRYANQARLIVNIAKVNEDMNAKLIRELKAEIAKLKAAQRNSRNIDPERYRLCRQEITSLRMKLHQQERDMAEMQRV | 2 |
| Kif5b-GFP (domain or fragment, human, UniProt P33176 1-905, looked up) MADLAECNIKVMCRFRPLNESEVNRGDKYIAKFQGEDTVVIASKPYAFDRVFQSSTSQEQVYNDCAKKIVKDVLEGYNGTIFAYGQTSSGKTHTMEGKLHDPEGMGIIPRIVQDIFNYIYSMDENLEFHIKVSYFEIYLDKIRDLLDVSKTNLSVHEDKNRVPYVKGCTERFVCSPDEVMDTIDEGKSNRHVAVTNMNEHSSRSHSIFLINVKQENTQTEQKLSGKLYLVDLAGSEKVSKTGAEGAVLDEAKNINKSLSALGNVISALAEGSTYVPYRDSKMTRILQDSLGGNCRTTIVICCSPSSYNESETKSTLLFGQRAKTIKNTVCVNVELTAEQWKKKYEKEKEKNKILRNTIQWLENELNRWRNGETVPIDEQFDKEKANLEAFTVDKDITLTNDKPATAIGVIGNFTDAERRKCEEEIAKLYKQLDDKDEEINQQSQLVEKLKTQMLDQEELLASTRRDQDNMQAELNRLQAENDASKEEVKEVLQALEELAVNYDQKSQEVEDKTKEYELLSDELNQKSATLASIDAELQKLKEMTNHQKKRAAEMMASLLKDLAEIGIAVGNNDVKQPEGTGMIDEEFTVARLYISKMKSEVKTMVKRCKQLESTQTESNKKMEENEKELAACQLRISQHEAKIKSLTEYLQNVEQKKRQLEESVDALSEELVQLRAQEKVHEMEKEHLNKVQTANEVKQAVEQQIQSHRETHQKQISSLRDEVEAKAKLITDLQDQNQKMMLEQERLRVEHEKLKATDQEKSRKLHELTVMQDRREQARQDLKGLEETVAKELQTLHNLRKLFVQDLATRVKKSAEIDSDDTGGSAAQKQKISFLENNLEQLTKVHKQLVRDNADLRCELPKLEKRLRATAERVKALESALKEAKENASRDRKRYQQEVDRIKEA | 2 |
